In paper PMC9279676, “ERK2 MAP kinase regulates SUFU binding by multisite phosphorylation of GLI1” (Life Science Alliance, 2022):
Changes are numbered by the printed parent chain.

Columns and labels:
[1] = target: T1, GLI1_(1-232) S116E S130E, 35S-radiolabeled (human, UniProt P08151-1 1-232, S116E | S130E, [35S]-methionine label)
T1 sequence: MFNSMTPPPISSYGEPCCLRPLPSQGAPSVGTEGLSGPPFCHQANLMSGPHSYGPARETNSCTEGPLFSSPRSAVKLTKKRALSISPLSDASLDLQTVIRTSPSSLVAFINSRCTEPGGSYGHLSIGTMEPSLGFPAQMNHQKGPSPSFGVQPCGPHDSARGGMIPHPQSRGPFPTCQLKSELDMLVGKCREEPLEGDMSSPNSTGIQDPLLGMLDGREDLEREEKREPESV

[2] = target: T2, GLI1_(1-232) S116E, 35S-radiolabeled (human, UniProt P08151-1 1-232, S116E, [35S]-methionine label)
T2 sequence: T1 sequence with E130S

[3] = target: T3, GLI1_(1-232) S102E S116E S130E, 35S-radiolabeled (human, UniProt P08151-1 1-232, S102E | S116E | S130E, [35S]-methionine label)
T3 sequence: T1 sequence with S102E

[4] = target: T4, GLI1_(1-232) S102E S130E, 35S-radiolabeled (human, UniProt P08151-1 1-232, S102E | S130E, [35S]-methionine label)
T4 sequence: T1 sequence with S102E, E116S

[5] = target: T5, full-length GLI1 S102E S116E S130E, 35S-radiolabeled (human, UniProt P08151-1 1-1106, S102E | S116E | S130E, [35S]-methionine label); test: pull-down; purified GST-SUFU, 1.25-80 nM, captured on glutathione-Sepharose beads; ∼1 pmol 35S-GLI1 (1-232 or full length) in 200 μl; 15 min at 30°C, then 1 h at room temperature; Binding Buffer + 1 mg/ml BSA; bound GLI1 quantified by SDS-PAGE and Phosphorimager; Kd from binding isotherms; conditions: one partner purified
T5 construct: human GLI1, full length (1,106 residues); also called FL-GLI1^EEE; GLI1^EEE; source: in vitro transcription/translation, partially purified by ammonium sulfate precipitation
T5 sequence (looked up): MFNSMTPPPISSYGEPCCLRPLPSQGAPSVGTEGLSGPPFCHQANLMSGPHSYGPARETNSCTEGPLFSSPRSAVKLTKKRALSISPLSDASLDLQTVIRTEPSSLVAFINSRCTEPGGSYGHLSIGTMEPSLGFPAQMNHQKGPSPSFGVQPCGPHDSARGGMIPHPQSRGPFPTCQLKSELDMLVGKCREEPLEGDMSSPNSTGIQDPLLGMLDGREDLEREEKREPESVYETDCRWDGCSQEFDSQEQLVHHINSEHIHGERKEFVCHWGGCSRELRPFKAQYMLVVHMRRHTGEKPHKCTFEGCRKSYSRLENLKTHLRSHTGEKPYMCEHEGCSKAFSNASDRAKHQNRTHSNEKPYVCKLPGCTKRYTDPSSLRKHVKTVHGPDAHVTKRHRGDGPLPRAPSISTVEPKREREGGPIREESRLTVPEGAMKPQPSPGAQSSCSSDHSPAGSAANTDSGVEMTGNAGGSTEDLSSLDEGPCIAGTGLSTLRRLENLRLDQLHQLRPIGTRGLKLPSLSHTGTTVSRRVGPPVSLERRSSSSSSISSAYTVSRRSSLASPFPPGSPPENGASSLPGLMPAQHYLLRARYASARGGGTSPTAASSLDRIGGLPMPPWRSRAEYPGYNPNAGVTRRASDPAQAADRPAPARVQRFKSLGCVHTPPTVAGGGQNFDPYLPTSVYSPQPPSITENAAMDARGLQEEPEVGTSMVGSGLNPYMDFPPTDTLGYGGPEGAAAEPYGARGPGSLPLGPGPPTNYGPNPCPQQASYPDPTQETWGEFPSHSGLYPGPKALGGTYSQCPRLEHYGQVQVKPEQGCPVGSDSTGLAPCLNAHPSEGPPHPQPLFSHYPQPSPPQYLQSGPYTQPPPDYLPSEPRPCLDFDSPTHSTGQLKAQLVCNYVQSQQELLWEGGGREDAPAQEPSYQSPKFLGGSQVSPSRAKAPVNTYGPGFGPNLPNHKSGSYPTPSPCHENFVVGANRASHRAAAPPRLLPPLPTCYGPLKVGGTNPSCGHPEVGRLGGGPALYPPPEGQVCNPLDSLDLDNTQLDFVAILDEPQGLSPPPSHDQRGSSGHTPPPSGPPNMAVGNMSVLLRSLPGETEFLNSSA

B1: GST-SUFU (fusion of GST to full-length human SUFU) (natural protein, UniProt Q9UMX1-1 1-484, looked up)
chain: MAELRPSGAPGPTAPPAPGPTAPPAFASLFPPGLHAIYGECRRLYPDQPNPLQVTAIVKYWLGGPDPLDYVSMYRNVGSPSANIPEHWHYISFGLSDLYGDNRVHEFTGTDGPSGFGFELTFRLKRETGESAPPTWPAELMQGLARYVFQSENTFCSGDHVSWHSPLDNSESRIQHMLLTEDPQMQPVQTPFGVVTFLQIVGVCTEELHSAQQWNGQGILELLRTVPIAGGPWLITDMRRGETIFEIDPHLQERVDKGIETDGSNLSGVSAKCAWDDLSRPPEDDEDSRSICIGTQPRRLSGKDTEQIRETLRRGLEINSKPVLPPINPQRQNGLAHDRAPSRKDSLESDSSTAIIPHELIRTRQLESVHLKFNQESGALIPLCLRGRLLHGRHFTYKSITGDMAITFVSTGVEGAFATEEHPYAAHGPWLQILLTEEFVEKMLEDLEDLTSPEEFKLPKEYSWPEKKLKVSILPDVVFDSPLH
notes: human SUFU, full length (residues 1-484), BamHI-SUFU-SalI cassette in pGEX-LB; pGEX-LB carries a Gly-Gly-Gly-Gly-Gly-Ser-Gly stretch between GST and the fused protein; also called full-length GST-SUFU; source: Escherichia coli, purified (glutathione-Sepharose); not shown: GST, N-terminal, kept
Kd [1]: 19 nM
Kd [2]: 7 nM
Kd [3]: 520 nM
Kd [4]: 300 nM
Kd [5]: 42 ± 8 nM
